In the nanobody polyreactivity screen of Harvey et al. (2022):

Test: yeast display, Sf9 membrane polyspecificity reagent, FACS + sequencing; frameworks hold sequencing errors
In short: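 Nanobodies came from a synthetic yeast display library in Saccharomyces cerevisiae BJ5465, induced with galactose for 36–48 hours and stained for 1 hour at 4 °C with 10% biotinylated, detergent-solubilized Sf9 membrane reagent. Cells were enriched on streptavidin microbeads and then FACS-sorted, with low and high (top ~1%) gates set on anti-HA fluorescence for expression and streptavidin fluorescence for reagent binding. Each polyreactivity label reflects the gate a clone came from. Genes were amplified by colony PCR, sequenced by MiSeq 2 × 250 and filtered by CDR length.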

Row | Sequence | polyreactivity (PSR sort gate)
1 | QVQLVESGGGLVQAGGSLRISCAASGRIFYENTMGWYRQAPGKETELVAVITSTGNTNYADSVKGRFTISRDNAKNTVYLQMNSLKPEVTAVYYCAADSPPGGYVFPERPYDYWGQGTQVTVSS | low polyreactivity
2 | QVQLVESGGGLVQAGGSLRISCAASGRIFYYNVMGWYRQAPGKEWELVASISYSSTRTYYADSVKGRFTISRDNGMNTFYLQMNSLKPEDTAVYYCAVDGYSYYSMDYWGQGTQVTVSS | low polyreactivity
3 | QVQLVESGGGLVQAGGSLRISCAASGRISVVNAMGWYRQAPGKEREMVAAIRRASTNYADSVKGRFTISRDNAKNTVYLQMNSLKPEDTAVYFCAARVYGINIFEYWGQGTQVTVSS | high polyreactivity
4 | QVQLVESGGGLVQAGGSLRISCAASGRNLSVYAMGWYRPAPGKERELVATITGRGGGTYYADSVKGRFTISRDNAKNTVYLQMNRLKPEDTAVYYCAADLVDFWYQITTHYDYWGQGTEVTVSS | low polyreactivity
5 | QVQLVESGGGLVQAGGSLRISCAASGRTFADYAMGWSRQEPGKERELVAAISWSGGSTYYADSVKGRFTISCDNAKNTVYLQMNSLKPEDTAVYYSNAVRQRGYDYWGQGTQVTVSS | low polyreactivity
6 | QVQLVESGGGLVQAGGSLRISCAASGRTFDRYAMGWYREAPGKERELVAVIRFIGGSTYYADSVKGRFTISRDNAKKTVYLQRNSLIPEDTAVYYCAAEVYDSYFFGYEYWGQGTQVTVSS | low polyreactivity
7 | QVQLVESGGGLVQAGGSLRISCAASGRTFGANAMGWYRQAPGKERELVAGITSSGGSTSYADSVKGRFTISRDNAKNTVYLQMNSLKPEDTAVYYCAKDVYQHIFDVILGGYDSWGQGTQVTVSS | low polyreactivity
8 | QVQLVESGGGLVQAGGSLRISCAASGRTFGINAMGWYRQAPGKERELVAAISSSGSTYYADSVKGRFTISRDNAKNTVYLQMNSLKPEDTAVYYCAAVAKQWGNTYYYWGQGTQVTVSS | high polyreactivity
9 | QVQLVESGGGLVQAGGSLRISCAASGRTFLSYGMGWYRQAPGKERELVATIDDSGSTYYADSVKGRFTISRDNAKNTVYLQMNSLKPEDTAVYYCATDRQVFYWDFWYIEYDYGGQGTQVTVSS | high polyreactivity
10 | QVQLVESGGGLVQAGGSLRISCAASGRTFPCKAMGWYRQAPGKERELVATITWSSGRTHYADSVKGRFTISRDNAKNTVYLQMNSLKPEDSAVYYCAAKWIVAVVGFYYWGQGTQVTVSS | low polyreactivity
11 | QVQLVESGGGLVQAGGSLRISCAASGRTFSSYAMGWYRQAPGKERELVARISSSGGRTSYADSVKGRFTISRDNAKNTVYLQMNSLKPEDTAVYYCATEWSDRNDYWGQGTQVTVSS | high polyreactivity
12 | QVQLVESGGGLVQAGGSLRISCAASGSIFAKNAMGWYRQAPGKERELVAGIDFSGGSTYYADSVKGRFTISRDNAKNTVYLQMNSLKPEDTAVYYCAADWAYKYELDYWGQGTQVTVSS | low polyreactivity
13 | QVQLVESGGGLVQAGGSLRISCAASGSIFPHYAMGWYRQSPAKERELVAAISYSGGRTYYADSVKGRFTISRDNAKNTFYLQMNSLKPEDTAVYYCAKTERVLYHGDYWGQGTQVTVSS | low polyreactivity
14 | QVQLVESGGGLVQAGGSLRISCAASGSIFQNYAMGGYRQAPGKERELVAAINDDSTYYADSVKGRFTISRDNAKNPVDLQMNSLKPEDTAVYYGNKEFLRRQRVTFWHLGGYWGQGTQVTVSS | low polyreactivity
15 | QVQLVESGGGLVQAGGSLRISCAASGSIFRINAMGWYRQAHGKEMELVAAITASGDRTYYADSVKGRFTISRDNAKNTVYLQMNSLKPEDTAVFYCAVDSYYPASSLVAFPYAPRYDYWGQGTQVTVSS | low polyreactivity
16 | QVQLVESGGGLVQAGGSLRISCAASGSIFRRYAMGWYSQAPGKERDLVATISSVTTTNYADSVKGRFTISRDNANNTVYLQMNSLKPEDTSVFYCAAVVYGQRRGPGQRKSYWGQGTQVTVSS | high polyreactivity
17 | QVQLVESGGGLVQAGGSLRISCAASGSIFRYYYMGWYSQAPGKERELVAAITYSGGGTYYADSVKGRFTISRDNAKNTVYLQMNSLKAEDTAVYYCAVRRVGSIYIDRYIYVVSDYFYWGNGTQVTVSS | low polyreactivity
18 | QVQLVESGGGLVQAGGSLRISCAASGSIFSDNGMGWYRQAPGKERELVAAITIGGSTNYADSVKGRFTISRDNAKNTVYLLMKRLNPEDTAVYYCNTDFFYYGYNFPYFDYDYWGQGTQVTVSA | low polyreactivity
19 | QVQLVESGGGLVQAGGSLRISCAASGSIFTANSMGWYRQAPGKERELVAAITWSGGSTYYADSVKGRFTISRDNAKNTVYLQMNSLKPEDPAVYYCAALPLYLGPKRLGYWGQGTQVTVSS | high polyreactivity
20 | QVQLVESGGGLVQAGGSLRISCAASGSIFVHYSMGWYRQAPGKEREFVAAISRGGGTTYYADSVKGRFTISRDNAKNTVYLQMNSLKPEDTAVYYCSARPSTDEGHRQSGLDYWGQGTQVTVSS | high polyreactivity
21 | QVQLVESGGGLVQAGGSLRISCAASGSIFYLYTIGWYRQAPGKERELVAAITSGGSTNYADSVKGRFTISRDNAKNTVYLQMNSLKPEDTAVYYCAAEYFDWWVTYDYWGQGTQVTVSS | high polyreactivity
22 | QVQLVESGGGLVQAGGSLRISCAASGSIFYPYAMGWYRQAPGKERELVAGITYRAGSTYYADSVKGRFTISRDNAKNTVYLQMNSLKPEDTAVYYCAASESYAFDWGQGTQVTVSS | high polyreactivity

Row | Sequence | polyreactivity (PSR sort gate)
23 | QVQLVESGGGLVQAGGSLRISCAASGSIFYRYAMGWYRQAPGKERELVAAIRTRGGTYYADSVKGRFTISRDNAKNTVYLQMNSLKPEDTAVYYCNAVVPGWTAVDYDYWGQGTQVTVSS | high polyreactivity
24 | QVQLVESGGGLVQAGGSLRISCAASGSNFSIYAMGWYRQAPGKERELVATNYADSVKGRFTISRDNAKNTVYLQMNSLKPEDTAVDYCAADDLSYFWGDVPGDYWGQGTQVTVSS | low polyreactivity
25 | QVQLVESGGGLVQAGGSLRISCAASGSTFDNYAMGSYRHAPGKERELVAVITQSGGITFYADSVKGRFTISRDNSKNTVYLQMNSLKPEDSAVYYCNVELDRSWYYYWGQGTQVTVSS | low polyreactivity
26 | QVQLVESGGGLVQAGGSLRISCAASGSTFDYNAMGWDRQAPGKERELVAVISQSGTRTYYADSVKGRFTISRDNAKNTVYLQMNSLKPEDTAVYYCAARSPYSYRYDYWGQGTQVTVSS | high polyreactivity
27 | QVQLVESGGGLVQAGGSLRISCAASGSTFGDYTMGWYRQAHGKERELVAAITLTGGSTFYADSVKGRFTISRDNAKNTVYLQMNSLKPVDTAVYYCNTDVIRWVGGTWHRYYYWGQGTQVTVSS | low polyreactivity
28 | QVQLVESGGGLVQAGGSLRISCAASGSTFGSYTMGWYRQAPGKERELVAAIRGGGSTYYADSVKGRFTISRDNAKNTVYLQMNSLKPEDTAVYYCAALSPRRYNPRYGFDYCGQGTQVTVSS | high polyreactivity
29 | QVQLVESGGGLVQAGGSLRISCAASGSTFGYNDMGWYRQAPGKERELVAAIDTGVSTNYADSVKGRFTISRDNAKNTVYLQMNSLKPEDTAVYYCAKSGSAYWHSGWSVGFDYWGQGTQVTVSS | low polyreactivity
30 | QVQLVESGGGLVQAGGSLRISCAASGSTFGYNGMGWYRQAPGKERELVAAISGGARTYADSVKGRFTISRDNAKNTVYLLMNSLKPEDTAVYYCAADSPVSVTADDVFWGQGTQVTVSS | low polyreactivity
31 | QVQLVESGGGLVQAGGSLRISCAASGSTFQGNAMGWSRHAPGKERELVAAISRSGGSTYADSVKGRFTISRDNAKNTVYLQMNSLKPEDTAVYYCSADAPFDRPYNYWGQGTQVTVSS | low polyreactivity
32 | QVQLVESGGGLVQAGGSLRISCAASGSTFRWYAMGWYRQAPGKEREFVAAITWSGGRTYYADSVKGRFTISRDNAKNTVYLQMNSLKPEDTAVYYGNADDYGDSFNYWGQGTQVTVSS | high polyreactivity
33 | QVQLVESGGGLVQAGGSLRISCAASGSTFSLNAMGWYRQAPGKERELVAAISSRGTSTYYADSVKGRFTISRDNAKNTVYLQMNSLKPVDTAVYYCAAGKPKIPDDDYWGQGTQVTVSS | high polyreactivity
34 | QVQLVESGGGLVQAGGSLRISCAASGSTFTINVMGWYTQAPGKERELVAAINGGGRTNYADSVKGRFTISRDNAKNTVYLQMNSLIPEDSAVYYCAADGLSIVRQMDYWGLGTQVTVSS | low polyreactivity
35 | QVQLVESGGGLVQAGGSLRISCAASGSTFWYYSMGWYRQAPGKERELVAAITRGGNTNYADSVKGRFTISRDNAKNTVYLQMNSLKPEDTAVYYCNADYKLADYREYNVYSFDYWGQGTQVTVSS | low polyreactivity
36 | QVQLVESGGGLVQAGGSLRISCAASGSTSTGMTWDGIDRRLGRKELVAGIRSAGSTNYADSVKGRFTISRDNAKNTVYLQMNSLKPEDTAGYYCAKDYRWVWRKYGYWGQGTQVTLSS | low polyreactivity
37 | QVQLVESGGGLVQAGGSLRISCAASGSTYYNAMGWYRQAPGKERELVAAFRFRSGSTYYADSVKGRFTISRDNAKNTVYLQMNSLKPEDTAVYYCAADYKRSWRYAYNYWGQGTQVTVSS | high polyreactivity
38 | QVQLVESGGGLVQAGGSLRISCAASGSTYYTNTMGWYRQAPGKERELVADINGSGGSTYYADSVKGRITISRDNAKNTVYLQMNSLKPEDTAVYYCAAGSLQVAIRYDYWGQGTQVTVSS | low polyreactivity
39 | QVQLVESGGGLVQAGGSLRISCAASGYMFPWYTMGWYRQAPGKERELVAAITSGSSTYYADSVKGRFTISRDNAKNTVYLQMNSLKPEDTAVYYCNAYDDAYRLYRLRGRDYWGQGTQVTVSS | low polyreactivity
40 | QVQLVESGGGLVQAGGSLRISCAASGYTFLAYAMGWYRQAPGKERELVAAISRSGVSTYYADSVKGRFTISRDNAKNTVYLQMYSLKTEYTAVYYFNARSGRQLARYGYWGHGTQVTVSS | high polyreactivity
41 | QVQLVESGGGLVQAGGSLRISCAASRSTFGIYAMGWYRQAPGKERELVAAISFRCGRTYYADSVKGRFTISRDNAKNTVYLQMISLKPEDNAVYYCAATWYWGNAYWGQGTQVTVSS | low polyreactivity
42 | QVQLVESGGGLVQAGGSLRISCAASVSTFDINTMGWYRQAPGKEREFVAAITDSDDSTYYADSVKGRFTISRDNAKNTVYLQMNSLKPEDSAVYYCAADRSHAYYRKNRVDYWGQGTQVTVSS | low polyreactivity
43 | QVQLVESGGGLVQAGGSLRISCAATGIIFIGYAMGWYRQAPGKERELVAAITRSGVSTYYADSVKGRFTISRDNAKNTVYLQMNSLKPEDTAVYYCAARYFGEKYSHGFDYWGQGTQVTVSS | low polyreactivity
